Assay results as given in patent US12338277.

Experiments:
Experiment in all cases: cell-based or functional assay
[1] = biological target: HIV-1 Env of pseudovirus C3347.c11 (HIV-1)
[2] = biological target: HIV-1 envelope of pseudovirus 231965.c01 (HIV-1)
[3] = biological target: HIV-1 Env of pseudovirus TRJO4551.58 (HIV-1)
[4] = biological target: HIV-1 envelope of pseudovirus 1054_07_TC4_1499 (HIV-1)
[5] = biological target: HIV-1 Env of pseudovirus 191084 B7-19 (HIV-1)
[6] = biological target: HIV-1 Env of pseudovirus 191821_E6_1 (HIV-1)
[7] = biological target: HIV-1 envelope of pseudovirus Ce704809221_1B3 (HIV-1)
[8] = biological target: HIV-1 Env of pseudovirus CNE58 (HIV-1)
[9] = biological target: HIV-1 Env of pseudovirus 6535.3 (HIV-1)
[10] = biological target: HIV-1 envelope of pseudovirus BJOX025000.01.1 (HIV-1)
[11] = biological target: HIV-1 envelope of pseudovirus 6480.v4.c25 (HIV-1)
[12] = biological target: HIV-1 Env of pseudovirus MS208.A1 (HIV-1)
[13] = biological target: HIV-1 Env of pseudovirus WITO4160.33 (HIV-1)
[14] = biological target: HIV-1 Env of pseudovirus Q842.d12 (HIV-1)
[15] = biological target: HIV-1 Env of pseudovirus 249M B10 (HIV-1)
[16] = biological target: HIV-1 Env of pseudovirus QH0692.42 (HIV-1)
[17] = biological target: HIV-1 envelope of pseudovirus RHPA4259.7 (HIV-1)
[18] = biological target: HIV-1 envelope of pseudovirus 3365.v2.c2 (HIV-1)
[19] = biological target: HIV-1 Env of pseudovirus Du422.1 (HIV-1)
[20] = biological target: Murine leukemia virus (MuLV) envelope on pseudovirus (Murine leukemia virus)
[21] = biological target: HIV-1 envelope of pseudovirus 6811.v7.c18 (HIV-1)
[22] = biological target: HIV-1 envelope of pseudovirus T255-34 (HIV-1)
[23] = biological target: HIV-1 Env of pseudovirus 1054_07_TC4_1499 (HIV-1)
[24] = biological target: HIV-1 Env of pseudovirus CAAN5342.A2 (HIV-1)
[25] = biological target: HIV-1 Env of pseudovirus Q451.e2 (HIV-1)
[26] = biological target: HIV-1 Env of pseudovirus Ce2010_F5 (HIV-1)
[27] = biological target: HIV-1 Env of pseudovirus 0260.v5.c36 (HIV-1)
[28] = biological target: HIV-1 envelope of pseudovirus ZM135M.PL10a (HIV-1)
[29] = biological target: HIV-1 Env of pseudovirus 89-F1_2_25 (HIV-1)
[30] = biological target: HIV-1 envelope of pseudovirus 246F C1G (HIV-1)
[31] = biological target: HIV-1 Env of pseudovirus 6952.v1.c20 (HIV-1)
[32] = biological target: HIV-1 Env of pseudovirus 3365.v2.c2 (HIV-1)
[33] = biological target: HIV-1 Env of pseudovirus Ce2060_G9 (HIV-1)
[34] = biological target: HIV-1 envelope of pseudovirus T251-18 (HIV-1)
[35] = biological target: HIV-1 envelope of pseudovirus CNE8 (HIV-1)
[36] = biological target: HIV-1 envelope of pseudovirus WEAU_d15_410_787 (HIV-1)
[37] = biological target: HIV-1 envelope of pseudovirus YU-2 (HIV-1)
[38] = biological target: HIV-1 envelope of pseudovirus Ce703010054_2A2 (HIV-1)
[39] = biological target: HIV-1 envelope of pseudovirus ZM214M.PL15 (HIV-1)
[40] = biological target: HIV-1 envelope of pseudovirus WITO4160.33 (HIV-1)
[41] = biological target: HIV-1 envelope of pseudovirus 6540.v4.c1 (HIV-1)
[42] = biological target: HIV-1 envelope of pseudovirus BJOX010000.06.2 (HIV-1)
[43] = biological target: HIV-1 envelope of pseudovirus 3103.v3.c10 (HIV-1)
[44] = biological target: HIV-1 envelope of pseudovirus PVO.4 (HIV-1)
[45] = biological target: HIV-1 envelope of pseudovirus 7030102001E5(Rev-) (HIV-1)
[46] = biological target: HIV-1 envelope of pseudovirus X1254_c3 (HIV-1)
[47] = biological target: HIV-1 envelope of pseudovirus Ce0393_C3 (HIV-1)
[48] = biological target: HIV-1 Env of pseudovirus Ce704809221_1B3 (HIV-1)
[49] = biological target: HIV-1 envelope of pseudovirus X1632_S2_B10 (HIV-1)
[50] = biological target: HIV-1 envelope of pseudovirus Ce2060_G9 (HIV-1)

Chain of 10-996 (antibody) (VH): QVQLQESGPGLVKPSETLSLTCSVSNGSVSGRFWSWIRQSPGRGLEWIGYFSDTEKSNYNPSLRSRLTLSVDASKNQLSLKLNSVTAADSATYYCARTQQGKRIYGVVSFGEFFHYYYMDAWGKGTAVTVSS
Chain of 10-996 (antibody) (VL): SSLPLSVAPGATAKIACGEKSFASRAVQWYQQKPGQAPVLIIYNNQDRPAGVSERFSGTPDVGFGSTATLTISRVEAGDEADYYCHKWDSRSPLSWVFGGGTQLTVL

10-996 (antibody)
IC80 (TZM-bl neutralization) [1]: > 50 µg/mL | IC50 (TZM-bl neutralization) [2]: > 50 µg/mL | IC80 (TZM-bl neutralization) [3]: 7.27 µg/mL | IC50 (TZM-bl neutralization) [4]: 0.26 µg/mL | IC80 (TZM-bl neutralization) [5]: 0.144 µg/mL | IC80 (TZM-bl neutralization) [6]: > 50 µg/mL | IC50 (TZM-bl neutralization) [7]: 0.243 µg/mL | IC80 (TZM-bl neutralization) [8]: 2.22 µg/mL | IC80 (TZM-bl neutralization) [9]: 0.046 µg/mL | IC50 (TZM-bl neutralization) [10]: > 50 µg/mL | IC50 (TZM-bl neutralization) [11]: 0.01 µg/mL | IC80 (TZM-bl neutralization) [12]: > 50 µg/mL | IC80 (TZM-bl neutralization) [13]: 6.48 µg/mL | IC80 (TZM-bl neutralization) [14]: > 50 µg/mL | IC80 (TZM-bl neutralization) [15]: > 50 µg/mL | IC80 (TZM-bl neutralization) [16]: 1.85 µg/mL | IC50 (TZM-bl neutralization) [17]: 0.034 µg/mL | IC50 (TZM-bl neutralization) [18]: 0.286 µg/mL | IC80 (TZM-bl neutralization) [19]: 0.215 µg/mL | IC50 (TZM-bl neutralization assay) [20]: > 40 µg/mL | IC80 (TZM-bl neutralization assay) [20]: > 40 µg/mL | IC50 (TZM-bl neutralization) [21]: 0.001 µg/mL | IC50 (TZM-bl neutralization) [22]: 28.4 µg/mL | IC80 (TZM-bl neutralization) [23]: 0.901 µg/mL | IC80 (TZM-bl neutralization) [24]: 0.079 µg/mL | IC80 (TZM-bl neutralization) [25]: > 50 µg/mL | IC80 (TZM-bl neutralization) [26]: > 50 µg/mL | IC80 (TZM-bl neutralization) [27]: 0.436 µg/mL | IC50 (TZM-bl neutralization) [28]: 0.099 µg/mL | IC80 (TZM-bl neutralization) [29]: > 50 µg/mL | IC50 (TZM-bl neutralization) [30]: 0.092 µg/mL | IC80 (TZM-bl neutralization) [31]: 0.188 µg/mL | IC80 (TZM-bl neutralization) [32]: 1.38 µg/mL | IC80 (TZM-bl neutralization) [33]: > 50 µg/mL | IC50 (TZM-bl neutralization) [34]: 0.939 µg/mL | IC50 (TZM-bl neutralization) [35]: > 50 µg/mL | IC50 (TZM-bl neutralization) [36]: 0.147 µg/mL | IC50 (TZM-bl neutralization) [37]: 0.256 µg/mL | IC50 (TZM-bl neutralization) [38]: > 50 µg/mL | IC50 (TZM-bl neutralization) [39]: 0.413 µg/mL | IC50 (TZM-bl neutralization) [40]: 0.538 µg/mL | IC50 (TZM-bl neutralization) [41]: > 50 µg/mL | IC50 (TZM-bl neutralization) [42]: > 50 µg/mL | IC50 (TZM-bl neutralization) [43]: 0.053 µg/mL | IC50 (TZM-bl neutralization) [44]: 0.186 µg/mL | IC50 (TZM-bl neutralization) [45]: 0.013 µg/mL | IC50 (TZM-bl neutralization) [46]: 0.121 µg/mL | IC50 (TZM-bl neutralization) [47]: > 50 µg/mL | IC80 (TZM-bl neutralization) [48]: 1.21 µg/mL | IC50 (TZM-bl neutralization) [49]: > 50 µg/mL | IC50 (TZM-bl neutralization) [50]: > 50 µg/mL

PGT121 (antibody)
IC80 (TZM-bl neutralization) [1]: > 50 µg/mL | IC50 (TZM-bl neutralization) [2]: > 50 µg/mL | IC80 (TZM-bl neutralization) [3]: 35.3 µg/mL | IC50 (TZM-bl neutralization) [4]: 0.115 µg/mL | IC80 (TZM-bl neutralization) [5]: 0.128 µg/mL | IC80 (TZM-bl neutralization) [6]: > 50 µg/mL | IC50 (TZM-bl neutralization) [7]: 0.098 µg/mL | IC80 (TZM-bl neutralization) [8]: > 50 µg/mL | IC80 (TZM-bl neutralization) [9]: 0.021 µg/mL | IC50 (TZM-bl neutralization) [10]: > 50 µg/mL | IC50 (TZM-bl neutralization) [11]: 0.017 µg/mL | IC80 (TZM-bl neutralization) [12]: > 50 µg/mL | IC80 (TZM-bl neutralization) [13]: 6.01 µg/mL | IC80 (TZM-bl neutralization) [14]: 0.074 µg/mL | IC80 (TZM-bl neutralization) [15]: > 50 µg/mL | IC80 (TZM-bl neutralization) [16]: 8.54 µg/mL | IC50 (TZM-bl neutralization) [17]: 0.014 µg/mL | IC50 (TZM-bl neutralization) [18]: 0.921 µg/mL | IC80 (TZM-bl neutralization) [19]: 0.131 µg/mL | IC50 (TZM-bl neutralization assay) [20]: > 40 µg/mL | IC80 (TZM-bl neutralization assay) [20]: > 40 µg/mL | IC50 (TZM-bl neutralization) [21]: 0.004 µg/mL | IC50 (TZM-bl neutralization) [22]: 6.72 µg/mL | IC80 (TZM-bl neutralization) [23]: 0.696 µg/mL | IC80 (TZM-bl neutralization) [24]: 0.051 µg/mL | IC80 (TZM-bl neutralization) [25]: > 50 µg/mL | IC80 (TZM-bl neutralization) [26]: > 50 µg/mL | IC80 (TZM-bl neutralization) [27]: 0.152 µg/mL | IC50 (TZM-bl neutralization) [28]: 0.576 µg/mL | IC80 (TZM-bl neutralization) [29]: > 50 µg/mL | IC50 (TZM-bl neutralization) [30]: 0.083 µg/mL | IC80 (TZM-bl neutralization) [31]: 0.605 µg/mL | IC80 (TZM-bl neutralization) [32]: 7.35 µg/mL | IC80 (TZM-bl neutralization) [33]: > 50 µg/mL | IC50 (TZM-bl neutralization) [34]: > 50 µg/mL | IC50 (TZM-bl neutralization) [35]: > 50 µg/mL | IC50 (TZM-bl neutralization) [36]: 0.083 µg/mL | IC50 (TZM-bl neutralization) [37]: 0.098 µg/mL | IC50 (TZM-bl neutralization) [38]: > 50 µg/mL | IC50 (TZM-bl neutralization) [39]: 0.236 µg/mL | IC50 (TZM-bl neutralization) [40]: 0.459 µg/mL | IC50 (TZM-bl neutralization) [41]: > 50 µg/mL | IC50 (TZM-bl neutralization) [42]: > 50 µg/mL | IC50 (TZM-bl neutralization) [43]: 0.042 µg/mL | IC50 (TZM-bl neutralization) [44]: 0.131 µg/mL | IC50 (TZM-bl neutralization) [45]: 0.01 µg/mL | IC50 (TZM-bl neutralization) [46]: 0.056 µg/mL | IC50 (TZM-bl neutralization) [47]: > 50 µg/mL | IC80 (TZM-bl neutralization) [48]: 0.492 µg/mL | IC50 (TZM-bl neutralization) [49]: > 50 µg/mL | IC50 (TZM-bl neutralization) [50]: > 50 µg/mL
